# Results as given in patent publication US20250340636A1 (Memorial Sloan Kettering, published 2025).
# B1: TDI-Y-004 (antibody, human IgG1, kappa, V domains shown)
# VH: QVQLVQSGAEVKKPGSSVKVSCKASGYTFTNYYIHWVRQAPGQGLEWMGKIGPGSGSPYYQGMFKDRVTITADESTSTAYMELSSLRSEDTAVYYCARWLLPFDYWGQGTLVTVSS
# VL: EIVLTQSPGTLSLSPGERATLSCRASSSVNYMHWYQQKPGQAPRLLIYATSILASGIPDRFSGSGSGTDYTLTISRLEPEDFAVYYCQQFSSDPLTFGGGTKVEIKR
# notes: Human IgG1, kappa; also called humanized 143G03 (N61Q) mAb; hz143G03 (N61Q)
# Experiments:
# [1] = target: T1, soluble mouse L1CAM (monomer), His-tagged (mouse, UniProt P11627 20-1123, limits assumed); experiment: BLI (Octet Red96e), His-tagged L1CAM on Ni-NTA biosensors, mAb as analyte
# T1 construct: read as mouse
# T1 sequence (P11627 20-1123 limits assumed): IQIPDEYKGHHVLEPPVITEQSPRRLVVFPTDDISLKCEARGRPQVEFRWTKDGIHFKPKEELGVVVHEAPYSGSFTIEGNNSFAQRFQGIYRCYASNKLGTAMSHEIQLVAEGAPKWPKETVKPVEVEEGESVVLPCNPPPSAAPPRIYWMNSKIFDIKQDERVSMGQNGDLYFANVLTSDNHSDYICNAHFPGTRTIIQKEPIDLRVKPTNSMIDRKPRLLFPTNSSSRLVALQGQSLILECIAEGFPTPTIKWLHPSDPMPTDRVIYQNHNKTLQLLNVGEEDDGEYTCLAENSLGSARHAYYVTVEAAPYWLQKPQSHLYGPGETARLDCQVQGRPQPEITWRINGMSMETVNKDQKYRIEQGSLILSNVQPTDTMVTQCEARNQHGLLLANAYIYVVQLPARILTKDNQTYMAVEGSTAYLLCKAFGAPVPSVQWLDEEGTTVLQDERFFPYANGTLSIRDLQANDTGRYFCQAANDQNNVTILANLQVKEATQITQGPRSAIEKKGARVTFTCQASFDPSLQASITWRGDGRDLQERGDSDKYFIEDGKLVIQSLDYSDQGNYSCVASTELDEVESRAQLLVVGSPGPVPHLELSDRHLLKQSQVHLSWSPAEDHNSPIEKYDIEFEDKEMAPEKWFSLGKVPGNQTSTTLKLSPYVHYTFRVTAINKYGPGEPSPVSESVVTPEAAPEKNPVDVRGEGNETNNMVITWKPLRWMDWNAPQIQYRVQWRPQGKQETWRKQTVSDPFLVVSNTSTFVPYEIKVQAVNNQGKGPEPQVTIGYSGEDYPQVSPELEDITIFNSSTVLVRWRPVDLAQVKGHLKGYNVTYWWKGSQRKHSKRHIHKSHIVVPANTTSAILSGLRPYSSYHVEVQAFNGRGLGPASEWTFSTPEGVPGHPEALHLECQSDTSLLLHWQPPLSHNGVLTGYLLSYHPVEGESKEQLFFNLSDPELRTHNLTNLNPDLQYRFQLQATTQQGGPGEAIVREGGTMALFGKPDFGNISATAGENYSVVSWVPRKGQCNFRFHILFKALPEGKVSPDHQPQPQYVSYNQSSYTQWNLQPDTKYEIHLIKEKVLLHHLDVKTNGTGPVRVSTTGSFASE
# Protocol: Cross-reactivity to Mouse L1CAM. Affinity to mouse L1CAM was measured by BLI using an Octet Red96e instrument. […] The data was prepared by reference well subtraction, and response curves were globally fit to a 1:1 Langmuir binding model.
# [2] = target: T2, extracellular domain of human L1CAM (isoform 1) fused to a poly-histidine tag via its carboxy terminus (human, UniProt P32004 20-1120); experiment: BLI (Octet Red96e), His-tagged human L1CAM on Ni-NTA biosensors, mAb as analyte, 1:1 fit
# T2 construct: Bought (Creative Biomart); also called L1CAM-His; huL1CAM protein
# T2 sequence (P32004 20-1120): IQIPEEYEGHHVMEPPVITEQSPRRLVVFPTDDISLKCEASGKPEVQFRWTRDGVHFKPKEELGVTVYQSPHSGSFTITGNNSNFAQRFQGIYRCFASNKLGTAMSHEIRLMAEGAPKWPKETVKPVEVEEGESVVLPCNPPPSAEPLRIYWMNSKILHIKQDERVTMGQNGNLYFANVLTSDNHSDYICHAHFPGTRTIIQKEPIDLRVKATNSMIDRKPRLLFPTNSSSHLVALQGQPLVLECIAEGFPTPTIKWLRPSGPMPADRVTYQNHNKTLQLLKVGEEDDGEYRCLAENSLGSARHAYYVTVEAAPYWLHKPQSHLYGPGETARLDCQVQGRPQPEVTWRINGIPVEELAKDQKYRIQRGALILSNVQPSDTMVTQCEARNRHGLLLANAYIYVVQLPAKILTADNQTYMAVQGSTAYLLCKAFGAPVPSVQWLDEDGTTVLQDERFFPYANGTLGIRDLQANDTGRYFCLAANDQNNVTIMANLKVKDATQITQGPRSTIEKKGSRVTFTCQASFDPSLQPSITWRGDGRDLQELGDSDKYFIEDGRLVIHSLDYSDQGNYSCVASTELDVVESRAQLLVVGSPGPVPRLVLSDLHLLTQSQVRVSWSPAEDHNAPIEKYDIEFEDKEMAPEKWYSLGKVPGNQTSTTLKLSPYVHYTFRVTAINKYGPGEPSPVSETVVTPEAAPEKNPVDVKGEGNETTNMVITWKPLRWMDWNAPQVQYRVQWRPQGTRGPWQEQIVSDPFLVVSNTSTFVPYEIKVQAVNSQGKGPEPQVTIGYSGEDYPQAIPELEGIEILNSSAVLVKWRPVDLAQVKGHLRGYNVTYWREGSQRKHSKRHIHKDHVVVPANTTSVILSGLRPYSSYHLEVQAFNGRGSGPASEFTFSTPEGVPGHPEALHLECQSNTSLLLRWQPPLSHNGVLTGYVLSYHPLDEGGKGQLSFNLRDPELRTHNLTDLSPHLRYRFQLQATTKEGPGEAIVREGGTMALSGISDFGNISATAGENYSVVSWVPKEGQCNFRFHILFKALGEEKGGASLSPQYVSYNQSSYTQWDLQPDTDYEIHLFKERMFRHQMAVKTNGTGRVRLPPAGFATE
# Protocol: (§1) Binding to L1CAM in Solution. Affinity to human L1CAM was measured by BLI using an Octet Red96e instrument. […] The data was prepared by reference well subtraction, and response curves were globally fit to a 1:1 Langmuir binding model.
# human L1CAM on cells [3] = target: T3, human L1CAM on cells (human, UniProt P32004 20-1257); experiment: summary table; binding to cells with endogenous L1CAM (MCF-7)
# T3 construct: Overexpressed on stably transfected HEK293T cells or endogenous on MCF-7 and MDA-MB-231 cells; also called HEK293T-hL1CAM
# T3 sequence (P32004 20-1257): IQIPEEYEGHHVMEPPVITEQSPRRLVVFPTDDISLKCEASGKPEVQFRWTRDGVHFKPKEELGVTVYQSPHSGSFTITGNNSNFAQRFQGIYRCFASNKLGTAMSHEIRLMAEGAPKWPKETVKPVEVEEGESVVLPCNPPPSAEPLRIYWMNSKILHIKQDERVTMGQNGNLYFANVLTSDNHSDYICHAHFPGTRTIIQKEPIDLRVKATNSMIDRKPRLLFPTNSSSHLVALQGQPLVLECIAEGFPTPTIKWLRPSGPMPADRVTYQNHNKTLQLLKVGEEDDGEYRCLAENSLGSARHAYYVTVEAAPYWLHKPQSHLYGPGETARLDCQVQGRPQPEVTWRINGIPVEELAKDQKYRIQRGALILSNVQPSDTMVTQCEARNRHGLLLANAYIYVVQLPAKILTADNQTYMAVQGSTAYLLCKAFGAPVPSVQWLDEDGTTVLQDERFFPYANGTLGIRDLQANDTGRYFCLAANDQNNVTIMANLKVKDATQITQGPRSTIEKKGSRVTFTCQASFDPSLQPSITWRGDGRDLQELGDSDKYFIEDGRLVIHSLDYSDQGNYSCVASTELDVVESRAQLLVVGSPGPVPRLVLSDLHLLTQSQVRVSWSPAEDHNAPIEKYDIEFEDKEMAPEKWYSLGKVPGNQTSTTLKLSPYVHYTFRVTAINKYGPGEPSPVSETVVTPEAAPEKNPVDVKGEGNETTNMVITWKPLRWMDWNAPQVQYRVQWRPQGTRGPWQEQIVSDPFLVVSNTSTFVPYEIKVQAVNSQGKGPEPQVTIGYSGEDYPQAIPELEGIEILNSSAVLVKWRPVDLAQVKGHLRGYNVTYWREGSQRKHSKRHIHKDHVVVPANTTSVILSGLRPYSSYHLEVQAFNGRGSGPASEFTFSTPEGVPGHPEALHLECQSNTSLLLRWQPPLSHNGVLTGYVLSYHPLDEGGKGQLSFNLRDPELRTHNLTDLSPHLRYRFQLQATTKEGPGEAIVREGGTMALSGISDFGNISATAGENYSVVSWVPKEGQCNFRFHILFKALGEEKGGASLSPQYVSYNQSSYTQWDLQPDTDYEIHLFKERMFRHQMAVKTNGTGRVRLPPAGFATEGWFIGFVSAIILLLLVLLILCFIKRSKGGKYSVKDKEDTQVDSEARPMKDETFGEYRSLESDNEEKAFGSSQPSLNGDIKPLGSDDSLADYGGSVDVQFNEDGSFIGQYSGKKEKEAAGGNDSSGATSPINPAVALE
# Protocol: (§2) Binding to L1CAM on Cells. […] Cells were then incubated with an AlexaFluor 647 goat anti-human Fc secondary antibody. After washing, the stained cells were analyzed by flow cytometry.
# (§3) The binding curves for each antibody and cell line normalized to secondary antibody only staining (MFI ratio) are shown in FIGS. 14A-14C. EC50 values were determined by non-linear regression (Table 70). […] It is possible that differences in the conformation and oligomerization of L1CAM, depending on the surface expression level, contributed to the binding pattern. […] An avidity effect due to high levels of L1CAM surface expression may have contributed to the strong binding observed in this experiment.
# human L1CAM on cells [4] = target: T3, human L1CAM on cells; experiment: flow cytometry, HEK293T-hL1CAM cells, AlexaFluor 647 anti-human Fc secondary
# Protocol: as §2, §3
# [5] = target: T4, human CHL-1 (residues 25-1096 with a C-terminal 10xHis tag) (human, UniProt O00533 25-1096); experiment: ELISA, plates coated with human CHL-1
# T4 construct: range 25-1096; also called L1CAM-2; L1CAM2
# T4 sequence: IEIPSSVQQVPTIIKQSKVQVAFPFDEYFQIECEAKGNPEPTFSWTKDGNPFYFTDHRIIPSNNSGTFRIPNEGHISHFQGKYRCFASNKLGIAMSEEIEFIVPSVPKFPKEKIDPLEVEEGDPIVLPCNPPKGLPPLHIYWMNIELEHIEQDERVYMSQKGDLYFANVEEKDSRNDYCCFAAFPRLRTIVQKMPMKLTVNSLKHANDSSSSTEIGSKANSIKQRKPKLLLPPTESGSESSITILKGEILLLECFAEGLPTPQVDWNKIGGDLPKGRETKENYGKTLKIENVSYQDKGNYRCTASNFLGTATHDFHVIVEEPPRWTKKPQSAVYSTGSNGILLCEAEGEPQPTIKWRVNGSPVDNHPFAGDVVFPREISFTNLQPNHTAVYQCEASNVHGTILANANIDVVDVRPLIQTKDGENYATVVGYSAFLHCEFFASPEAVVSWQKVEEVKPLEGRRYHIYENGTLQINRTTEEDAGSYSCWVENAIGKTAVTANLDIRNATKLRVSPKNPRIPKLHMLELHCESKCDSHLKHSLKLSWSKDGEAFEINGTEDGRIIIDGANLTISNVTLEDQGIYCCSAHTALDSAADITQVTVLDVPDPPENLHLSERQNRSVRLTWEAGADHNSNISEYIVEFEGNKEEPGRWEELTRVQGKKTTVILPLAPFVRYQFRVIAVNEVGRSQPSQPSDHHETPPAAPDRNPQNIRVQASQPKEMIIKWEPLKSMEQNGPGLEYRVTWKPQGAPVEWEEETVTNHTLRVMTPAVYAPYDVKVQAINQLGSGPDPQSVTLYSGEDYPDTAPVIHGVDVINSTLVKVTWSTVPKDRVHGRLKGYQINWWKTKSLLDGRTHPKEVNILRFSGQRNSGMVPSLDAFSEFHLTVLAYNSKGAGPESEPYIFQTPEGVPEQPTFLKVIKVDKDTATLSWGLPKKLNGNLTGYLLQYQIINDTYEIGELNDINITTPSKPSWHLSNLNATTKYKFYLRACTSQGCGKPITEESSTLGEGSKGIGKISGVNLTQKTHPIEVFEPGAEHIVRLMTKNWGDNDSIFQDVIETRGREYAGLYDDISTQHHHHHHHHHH
# Source text: Selectivity. […] These proteins are other members of the L1 family of cell adhesion proteins and have between 49% and 55% sequence similarity with L1CAM in the extracellular portion. […] Positive control antibodies were included for each homolog. […] Epitope. The extracellular portion of L1CAM contains six immunoglobulin-like (Ig) domains and five fibronectin type III (FN) domains. To narrow down the binding region of the development candidate mAbs, truncated versions of human L1CAM protein (Ig domain, residues 21-605; FN domain, residues 606-1116; each with a C-terminal 6×His tag) were recombinantly produced, followed by a BLI experiment to test binding at 50 and 100 nM. […] 6×His tag is set forth in SEQ ID NO: 316.
# [6] = target: T5, mouse L1CAM on transiently transfected HEK293FT cells (mouse, UniProt P11627 20-1260); experiment: flow cytometry, cells transfected with mouse L1CAM
# T5 construct: whole, on cells; also called mouse L1CAM on cells
# T5 sequence (P11627 20-1260): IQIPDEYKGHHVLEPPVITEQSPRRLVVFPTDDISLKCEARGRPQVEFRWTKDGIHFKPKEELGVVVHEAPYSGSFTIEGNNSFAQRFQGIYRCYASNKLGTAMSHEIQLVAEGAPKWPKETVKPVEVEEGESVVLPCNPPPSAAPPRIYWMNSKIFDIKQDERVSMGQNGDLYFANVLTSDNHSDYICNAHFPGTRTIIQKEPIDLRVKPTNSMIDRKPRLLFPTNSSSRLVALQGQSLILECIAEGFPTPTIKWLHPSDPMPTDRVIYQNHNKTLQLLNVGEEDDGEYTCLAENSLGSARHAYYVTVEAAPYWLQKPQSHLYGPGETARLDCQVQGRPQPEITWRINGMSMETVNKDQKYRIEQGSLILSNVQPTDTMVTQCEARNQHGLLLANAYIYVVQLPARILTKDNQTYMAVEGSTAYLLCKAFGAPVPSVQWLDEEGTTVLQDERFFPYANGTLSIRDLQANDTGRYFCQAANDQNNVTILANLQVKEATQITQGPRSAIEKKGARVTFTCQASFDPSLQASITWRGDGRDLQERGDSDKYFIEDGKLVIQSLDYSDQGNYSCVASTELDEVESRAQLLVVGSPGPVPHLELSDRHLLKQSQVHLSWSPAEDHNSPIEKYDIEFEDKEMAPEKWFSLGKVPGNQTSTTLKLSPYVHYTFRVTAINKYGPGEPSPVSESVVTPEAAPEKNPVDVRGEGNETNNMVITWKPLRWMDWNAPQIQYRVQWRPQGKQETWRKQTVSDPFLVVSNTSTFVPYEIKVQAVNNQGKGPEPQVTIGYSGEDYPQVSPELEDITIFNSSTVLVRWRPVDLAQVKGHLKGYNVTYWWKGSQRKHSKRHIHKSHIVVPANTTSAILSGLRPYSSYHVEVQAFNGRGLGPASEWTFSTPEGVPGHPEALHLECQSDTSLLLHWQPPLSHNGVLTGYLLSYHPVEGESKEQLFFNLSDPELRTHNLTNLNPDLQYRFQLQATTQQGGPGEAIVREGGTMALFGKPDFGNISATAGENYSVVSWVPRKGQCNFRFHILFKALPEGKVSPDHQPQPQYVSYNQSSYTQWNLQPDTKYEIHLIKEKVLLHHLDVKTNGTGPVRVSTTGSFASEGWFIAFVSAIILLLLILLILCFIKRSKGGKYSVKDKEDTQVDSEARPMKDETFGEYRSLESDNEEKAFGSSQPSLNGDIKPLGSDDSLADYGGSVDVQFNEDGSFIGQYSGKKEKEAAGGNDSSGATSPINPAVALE
# human L1CAM on cells [7] = target: T3, human L1CAM on cells; experiment: flow cytometry, MCF-7 cells, AlexaFluor 647 anti-human Fc secondary
# Protocol: as §2, §3
# [8] = target: T6, soluble cynomolgus monkey L1CAM, His-tagged, monomeric (cynomolgus monkey, UniProt A0A2K5URB5 20-1120); experiment: summary table; soluble cynomolgus monkey L1CAM (monomer)
# T6 construct: also called cyL1CAM protein; cynomolgus L1CAM-His
# Protocol: (§4) Cross-reactivity to Cynomolgus Monkey L1CAM. Affinity to cynomolgus L1CAM was measured by BLI using an Octet Red96e instrument. […] The data was prepared by reference well subtraction, and response curves were globally fit to a 1:1 Langmuir binding model.
# [9] = target: T6, soluble cynomolgus monkey L1CAM, …; experiment: BLI (Octet Red96e), His-tagged cynomolgus L1CAM on Ni-NTA biosensors, mAb as analyte, 1:1 fit
# Protocol: as §4
# [10] = target: T2, extracellular domain of human L1CAM …; experiment: BLI, His-tagged human L1CAM
# Protocol: as §1
# human L1CAM on cells [11] = target: T3, human L1CAM on cells; experiment: summary table; binding to cells overexpressing human L1CAM (HEK293T)
# Protocol: as §2, §3
# human L1CAM on cells [12] = target: T3, human L1CAM on cells; experiment: summary table; binding to cells with endogenous L1CAM (MDA-MB-231)
# Protocol: as §2, §3
# [13] = target: T6, soluble cynomolgus monkey L1CAM, …; experiment: BLI, cynomolgus against human L1CAM-His
# Protocol: as §4
# [14] = target: T2, extracellular domain of human L1CAM …; experiment: summary table; binding to soluble human L1CAM (monomer)
# Protocol: as §1
# human L1CAM on cells [15] = target: T3, human L1CAM on cells; experiment: flow cytometry, MDA-MB-231 cells, AlexaFluor 647 anti-human Fc secondary
# Protocol: as §2, §3
binder,measurement,setting,value
B1,binding result,[1],no binding (tested: dilution series starting at 50 nM)
same,Kd,[2],0.35 nM
same,koff,[2],9.5e-05 s⁻¹
same,kon,[2],270000 M⁻¹ s⁻¹
same,EC50,human L1CAM on cells [3],1.3 nM
same,EC50,human L1CAM on cells [4],2.2 nM
same,binding result,[5],no binding (tested: 1 µM)
same,binding result,[6],no binding
same,EC50,human L1CAM on cells [7],1.3 nM
same,Kd,[8],0.3 nM
same,koff,[8],4.7e-05 s⁻¹
same,kon,[8],160000 M⁻¹ s⁻¹
same,Kd,[9],0.3 nM
same,koff,[9],4.7e-05 s⁻¹
same,kon,[9],160000 M⁻¹ s⁻¹
same,fold difference in KD against TDI-Y-005,[10],~10 fold
same,EC50,human L1CAM on cells [11],2.2 nM
same,EC50,human L1CAM on cells [12],2.5 nM
same,fold difference of KD against human L1CAM,[13],≤ 1.2 fold
same,Kd,[14],0.35 nM
same,koff,[14],9.5e-05 s⁻¹
same,kon,[14],270000 M⁻¹ s⁻¹
same,EC50,human L1CAM on cells [15],2.5 nM
